According to article PMC11283454:

System: hATE1 WT (human)
Experiment: EMSA

Work on tRNAArg acceptor arm yielded a Kd of 1.6 µM.
